Measurements reported in PMC5840378.

Biological target: T1, 14-3-3ε full length (14-3-3ε FL), recombinant, P62258
T1 chain: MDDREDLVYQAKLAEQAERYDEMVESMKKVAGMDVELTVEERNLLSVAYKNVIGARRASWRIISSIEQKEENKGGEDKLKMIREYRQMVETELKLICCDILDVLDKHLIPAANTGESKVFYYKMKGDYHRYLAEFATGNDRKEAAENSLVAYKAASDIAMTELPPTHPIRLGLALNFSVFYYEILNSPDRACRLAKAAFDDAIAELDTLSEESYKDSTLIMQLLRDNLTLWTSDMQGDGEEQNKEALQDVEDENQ
Assay: AUC + other: dynamic light scattering; sedimentation velocity, 20 °C, 45,000 r.p.m., 37 μM, 5 mM sodium phosphate pH 6.3; DLS at 0.1 mg/mL, 25 °C, same buffer
Settings: remark: other sources report otherwise

- stoichiometry N: 2
B1: 14-3-3ε full length (14-3-3ε FL), recombinant, P62258 1-255 (natural protein)
chain: MDDREDLVYQAKLAEQAERYDEMVESMKKVAGMDVELTVEERNLLSVAYKNVIGARRASWRIISSIEQKEENKGGEDKLKMIREYRQMVETELKLICCDILDVLDKHLIPAANTGESKVFYYKMKGDYHRYLAEFATGNDRKEAAENSLVAYKAASDIAMTELPPTHPIRLGLALNFSVFYYEILNSPDRACRLAKAAFDDAIAELDTLSEESYKDSTLIMQLLRDNLTLWTSDMQGDGEEQNKEALQDVEDENQ
